T1: XCR1-SMALP (Homo sapiens, UniProt P46094)
T1 sequence (P46094 1-333): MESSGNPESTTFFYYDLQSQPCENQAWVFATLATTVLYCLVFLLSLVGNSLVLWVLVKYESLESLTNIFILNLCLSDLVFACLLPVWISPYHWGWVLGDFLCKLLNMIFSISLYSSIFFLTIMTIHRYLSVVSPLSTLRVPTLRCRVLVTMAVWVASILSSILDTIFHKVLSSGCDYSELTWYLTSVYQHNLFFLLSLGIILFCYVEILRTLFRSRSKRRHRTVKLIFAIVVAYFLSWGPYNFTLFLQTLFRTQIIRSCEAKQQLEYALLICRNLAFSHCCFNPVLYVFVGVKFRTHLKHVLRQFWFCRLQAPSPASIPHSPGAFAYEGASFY

B1: LIBC527997-1: LC-swapped affinity-matured 10D10 variant; HV SEQ ID NO: 226, LV SEQ ID NO: 225 (antibody, V domains shown)
VH: QVQLQESGPGLVKPSQTLSLTCTVSGGSIRRGGDYWAWIRQHPGKGLEWIGHIYQTGSTNYNPRFKGRATISVNTYKNQFSLKLSSVTAADTAVYYCARNYDTLTGYSYYYYGMDVWGQGTTVTVSS
VL: DIQMTQSPSSLSASVGDRVTITCRASQSISNYLNWYQQKPGKAPKLLIYAASSLHSGVPSRFSGSGSGTDFTLTISSLQPEDFASYYCQQYQSYPLTFGQGTKVEIKR
B2: LIBC527919-1: LC-swapped affinity-matured 10D10 variant; HV SEQ ID NO: 252, LV SEQ ID NO: 251 (antibody, V domains shown)
VH: QVQLQESGPGLVKPSQTLSLTCTVSGGSIRRGGDYWAWIRQHPGKGLEWIGHVYQTGSTAYNPNFKDRATISVNTYKNQFSLKLSSVTAADTAVYYCARNYDALSGYSYYYYGMDVWGQGTTVTVSS
VL: DIQLTQSPSSLSASVGDRVTITCRASQSIISYLNWYQQKPGKAPKLLIYAASSLRSGVPSRFSGSGSGTDFTLTISSLQPEDFATYYCQQYSNYPLTFGGGTRVEIKR
B3: LIBC523661-1: cognate affinity-matured 10D10 variant; HV SEQ ID NO: 98, LV SEQ ID NO: 97 (antibody, V domains shown)
VH: QVQLQESGPGLVKPSQTLSLTCTVSGGSIRRGGDYWSWIRQHPGKGLEWIGHIYYEGSTKYNPSFKGRATISVNTYKNQFSLKLSSVTAADTAVYYCARDYDPVTGHSYYYYGMDVWGQGTTVTVSS
VL: DIVMTQSPLSLPVTPGEPASISCRSSQSLLTSSGYNYVDWYLQKPGQSPQLLIYQGSNRASGVPDRFSGSGSGTDFTLKISRVEAEDVGVYYCRQARAIPRTFGQGTKVEIKR
B4: LIBC527814-1: LC-swapped affinity-matured 10D10 variant; HV SEQ ID NO: 236, LV SEQ ID NO: 235 (antibody, V domains shown)
VH: QVQLQESGPGLVKPSQTLSLTCTVSGGSIRRGGDYWGWIRQHPGKGLEWIGHVYQTGSTKYNPSFKDRATISVNTYKNQFSLKLSSVTAADTAVYYCARNYDTLTGYSYYYYGMDVWGQGTTVTVSS
VL: DIQMTQSPSTLSASVGDRVTITCRASQSISNYLNWYQQKPGKAPKLLIYAASSLHSGVPSRFSGSGSGTDFTLTISSLQPEDFASYYCQQYQSYPLTFGQGTKVEIKR
B5: LIBC680800-1: further VK1 LC-optimized affinity-matured variant (antibody, V domains shown)
VH: QVQLQESGPGLVKPSQTLSLTCTVSGGSIRRGGDYWAWIRQHPGKGLEWIGHIYQTGSTNYNPRFKGRATISVNTYKNQFSLKLSSVTAADTAVYYCARNYDTLTGYSYYYYGMDVWGQGTTVTVSS
VL: DIQMTQSPSSLSASVGDRVTITCRASQSISSYLNWYQQKPGKAPKLLIYSARALSSGVPSRFSGSGSGTDFTLTISSLQPEDFATYYCQQYRKFPLTFGGGTKVEIKR
B6: LIBC680562-1: further VK1 LC-optimized affinity-matured variant (antibody, V domains shown)
VH: QVQLQESGPGLVKPSQTLSLTCTVSGGSIRRGGDYWAWIRQHPGKGLEWIGHIYQTGSTNYNPRFKGRATISVNTYKNQFSLKLSSVTAADTAVYYCARNYDTLTGYSYYYYGMDVWGQGTTVTVSS
VL: DIQMTQSPSSLSASVGDRVTITCRASQSISSYLNWYQQKPGKAPKLLIYSARRLSSGVPSRFSGSGSGTDFTLTISSLQPEDFATYYCQQYAKSPITFGGGTKVEIKR
B7: LIBC681593-1: further VK1 LC-optimized affinity-matured variant (antibody, V domains shown)
VH: QVQLQESGPGLVKPSQTLSLTCTVSGGSIRRGGDYWAWIRQHPGKGLEWIGHIYQTGSTNYNPRFKGRATISVNTYKNQFSLKLSSVTAADTAVYYCARNYDTLTGYSYYYYGMDVWGQGTTVTVSS
VL: DIQMTQSPSSLSASVGDRVTITCRASQSISSYLNWYQQKPGKAPKLLIYNARRLGSGVPSRFSGSGSGTDFTLTISSLQPEDFATYYCQQYRSSPVTFGGGTKVEIKR
B8: LIBC680812-1: further VK1 LC-optimized affinity-matured variant (antibody, V domains shown)
VH: QVQLQESGPGLVKPSQTLSLTCTVSGGSIRRGGDYWGWIRQHPGKGLEWIGHVYQTGSTKYNPSFKDRATISVNTYKNQFSLKLSSVTAADTAVYYCARNYDTLTGYSYYYYGMDVWGQGTTVTVSS
VL: DIQMTQSPSSLSASVGDRVTITCRASQSISSYLNWYQQKPGKAPKLLIYSARRLSSGVPSRFSGSGSGTDFTLTISSLQPEDFATYYCQQYRSYPITFGGGTKVEIKR
B9: LIBC680574-1: further VK1 LC-optimized variant; HV SEQ ID NO: 460, LV SEQ ID NO: 459; 52778 in YTE format (antibody, V domains shown)
VH: QVQLQESGPGLVKPSQTLSLTCTVSGGSIRRGGDYWAWIRQHPGKGLEWIGHVYYTGSTKYNPSFKDRATISVNTYKNQFSLKLSSVTAADTAVYYCARNYDTLTGYSYYYYGMDVWGQGTTVTVSS
VL: DIQMTQSPSSLSASVGDRVTITCRASQSISSYLNWYQQKPGKAPKLLIYGARRLGSGVPSRFSGSGSGTDFTLTISSLQPEDFATYYCQQYSSLPVTFGGGTKVEIKR
modifications: YTE Fc format
notes: further VK1 LC-optimized variant; 52778 in YTE format
B10: LIBC673952-1: further cognate affinity-matured variant; HV SEQ ID NO: 368, LV SEQ ID NO: 367; 52777 in YTE format (antibody, V domains shown)
VH: QVQLQESGPGLVKPSQTLSLTCTVSGGSIRRGGDYWSWIRQHPGKGLEWIGHVYYTGQTTYNPSFRGRVTISVNTYKNQFSLKLSSVTAADTAVYYCARDYDILTGYSYYYYGLDVWGQGTTVTVSS
VL: DIVMTQSPLSLPVTPGEPASISCRSSQSLLHRSGYNYLDWYLQKPGQSPQLLIYQGSNRASGVPDRFSGSGSGTDFTLKISRVEAEDVGVYYCRQARALPRTFGQGTKVEIKR
modifications: YTE Fc format
notes: 52777 in YTE format
B11: LIBC674229-1: further cognate affinity-matured variant (antibody, V domains shown)
VH: QVQLQESGPGLVKPSQTLSLTCTVSGGSIRRGGDYWSWIRQHPGKGLEWIGHIYQTGQTKYNPSFKGRVRISVNTYKNQFSLKLSSVTAADTAVYYCARGYDVSGYSYYYYGMDVWGQGTTVTVSS
VL: DIVMTQSPLSLPVTPGEPASISCRSSQSLLHRSGYNYLDWYLQKPGQSPQLLIYQGSNRASGVPDRFSGSGSGTDFTLKISRVEAEDVGVYYCMQSLQTPRTFGQGTKVEIKR
B12: LIBC674200-1: further cognate affinity-matured variant (antibody, V domains shown)
VH: QVQLQESGPGLVKPSQTLSLTCTVSGGSIRRGGDYWSWIRQHPGKGLEWIGHVYYTGQTAYNPNFRNRVRISVNTYKNQFSLKLSSVTAADTAVYYCARGYDVSGYSYYYYGMDVWGQGTTVTVSS
VL: DIVMTQSPLSLPVTPGEPASISCRSSQSLLHRSGYNYLDWYLQKPGQSPQLLIYLGSNRASGVPGRFSGSGSGTDFTLKISRVEAEDVGVYYCMQSLQTPRTFGQGTKVEIKR
B13: LIBC674090-1: further cognate affinity-matured variant (antibody, V domains shown)
VH: QVQLQESGPGLVKPSQTLSLTCTVSGGSIRRGGDYWSWIRQHPGKGLEWIGHIYYAGSTAYNPNFRGRVRISVNTYKNQFSLKLSSVTAADTAVYYCARGYDTSGYSYYYYGLDVWGQGTTVTVSS
VL: DIVMTQSPLSLPVTPGEPASISCRSSQSLLHRSGYNYLDWYLQKPGQSPQLLIYQGSNRASGVPDRFSGSGSGTDFTLKISRVEAEDVGVYYCMQSLQTPRTFGQGTKVEIKR

Test system: CB1-nanodisc
Assay: Octet affinity assay with CB1-nanodisc
Type: binding, human
Details: 1:1 Langmuir model
Protocol: Affinity assay using Octet. The Octet@HTX (Sartorius, Germany) instrument was used to determine affinities of anti-CB1 antibodies. Prior to experiment, Streptavidin (SA) biosensors (ForteBio, #18-5021) were pre-hydrated for 10 min in Octet assay buffer containing 10 mM Tris (Fisher, #BP152-1), 150 mM NaCl (Fisher, #5271-10), 1 mM CaCl2) (Fisher, #BP510-500), 0.1 mg/mL BSA (BioShop, #ALB001.1), and 0.1% Triton-X 100 (Calbiochem, #9410-OP), pH7.4. SA biosensors were loaded with biotinylated anti-human Fc antibody (Invitrogen, #A18827) followed by one baseline step of 60 s in Octet assay buffer. Anti-CB1 antibodies were prepared in Octet assay buffer and captured by the anti-human Fc antibody prior to being submerged in wells containing different concentrations of CB1-nanodisc (#CB1-008, in-house) for 5 min, followed by 10 min dissociation. […] SA biosensors were used once without regeneration. For data evaluation, ForteBio Data Analysis v11.0 software was used. The kinetic rate constants, association rate constant (ka, M−1s−1), dissociation rate constant (kd, s−1), and the equilibrium rate constant (KD, M) were determined by using a 1:1 Langmuir model.

B1 was tested. Which “Octet (nanodisc) k off” value did it give?
The value was 0.00136 s⁻¹.

What about the “Octet (nanodisc) k on” value of the same molecule?
The value was 51800 M⁻¹ s⁻¹.

Which “Octet (nanodisc) k off” value does the source give for B2 here?
The value was 0.00339 s⁻¹.

And the “Octet (nanodisc) k on” value?
The value was 56200 M⁻¹ s⁻¹.

For B3, which “Octet (nanodisc) k off” value is on record?
The value was 0.00275 s⁻¹.

What about the “Octet (nanodisc) k on” value of the same molecule?
The value was 35700 M⁻¹ s⁻¹.

With B4 as the molecule, how does the “Octet (nanodisc) k off” value read?
The value was 0.00198 s⁻¹.

What about the “Octet (nanodisc) k on” value of the same molecule?
The value was 56600 M⁻¹ s⁻¹.

Biological target: T1, XCR1-SMALP
Assay: Yeast-display non-specific binding to irrelevant XCR1-SMALP
Details: 25 nM; fold change compared to LIBC528116 (Fab), after background subtraction
Text: All eighteen cognate variants met the stringent binding improvement threshold against huCB1I-GFP-SMALP and had minimal binding to irrelevant XCR1-SMALP and empty-ND (Table 32). […] For LIBC674043-1 and LIBC674200-1, VH R149S and VL G76D germline reversion mutations were also included in the panel of IgG1 SEFL2 mAbs produced for functional testing.

For B5, which “25 nM XCR1-SMALP-GFP, relative binding fold change” value is on record?
The value was 0.47.

For B6, which “25 nM XCR1-SMALP-GFP, relative binding fold change” value is on record?
The value was 0.64.

Which “25 nM XCR1-SMALP-GFP, relative binding fold change” value does the source give for B7 here?
The value was 0.72.

B8 was tested. Which “25 nM XCR1-SMALP-GFP, relative binding fold change” value did it give?
Its value is 0.59.

B9 was tested. Which “25 nM XCR1-SMALP-GFP, relative binding fold change” value did it give?
The value was 0.56.

Same assay, conditions: 50 nM; fold change compared to LIBC523797-1(Fab), after background subtraction

B10 was tested. Which “50 nM XCR1 SMALP, relative binding fold change” value did it give?
The value was 0.59.

B11 was tested. Which “50 nM XCR1 SMALP, relative binding fold change” value did it give?
Its value is 0.80.

Which “50 nM XCR1 SMALP, relative binding fold change” value does the source give for B12 here?
The value was 0.79.

Which “50 nM XCR1 SMALP, relative binding fold change” value does the source give for B13 here?
Its value is 0.74.

Test system: diet-induced obese (DIO) huCB1 knock in (KI) mice
Assay: Diet-induced obese huCB1 knock in mice, 30 mg/kg QW for 35 days: body weight, food intake, fat mass, liver weight
Type: in vivo, mouse
Details: YTE format
Protocol: The further affinity matured antibodies LIBC673952 (52777) and LIBC680574 (52778) in YTE format (Dall'Acqua et al., The Journal of Immunology, 169: 5171-5180 (2002)) was scaled up for testing in diet-induced obese (DIO) transgenic mice with huCB1 knocked in. […] The antibodies (52777, 52778, and 37940) and a control antibody (huIgG control) were administered to the mice at 30 mg/kg QW for 35 days, and the body weight and food intake of the animals were measured every 3-4 days and the results are shown in FIGS. 10A and 10B.

B10 was tested. Which “average daily food intake” value did it give?
The value was “did not change significantly”.

And the “body weight of the animals” value?
Its value is “reduced body weight”.

How did the “average daily food intake” value turn out when B9 was run?
The value was “did not change significantly”.

What about the “body weight of the animals” value of the same molecule?
The value was “reduced body weight”.

Source: US20250277029A1, “CANNABINOID TYPE 1 RECEPTOR BINDING PROTEINS AND USES THEREOF” (AMGEN INC., priority 2022, published 2025)
